Measurements published in patent US10358638B2, “Method of producing 1,5-pentadiamine using lysine decarboxylase mutant having improved thermal stability” (AJINOMOTO CO., INC., priority 2014, dated 2019).

How the values were obtained:
[1] = Screening of lysates for retained lysine decarboxylase activity after heat treatment at 65° C.; type: biochemical, Escherichia coli; details: lysate incubated at 65° C. for 2 hours, then reacted at 37° C. for 40 minutes
Procedure: A colony of each transformant in which the mutated lysine decarboxylase had been introduced was picked up, inoculated to 1 mL of the LB medium containing 100 μg/mL of ampicillin, and cultured at 30° C. for 24 hours. 18 μL of 100 mM 2-(N-morpholino) ethanesulfonic acid (MES)-NaOH buffer (pH6.0) and 2.7 μL of FastBreak cell lysis reagent (Promega) were added to 10 μL of this cultured medium, which was then incubated at 37° C. for 30 minutes to lyse the microbial cells. Then, this lysate solution was heated up to 65° C. and incubated for 2 hours. After this heat treatment, 190 μL of a reaction solution (pH 5.5) containing 10 g/L of lysine hydrochloride, 21.3 g/L (100 mM) of MES, 26.5 mg/L of Pyridoxal-5′-phosphate (PLP) and 20 mg/L of Bromocresol purple was added and reacted at 37° C. for 40 minutes. […] More abundant formation of 1,5-PD and retention of activity as compared to bacteria expressing the wild-type enzyme after treating with heat under the above conditions were used as an indicator. Three candidate strains expressing CadA having improved thermal stability were obtained using this indicator. These transformants of E. coli JM109 strain were designated as CadA231, CadA232 and CadA233, respectively.

[2] = Inhibition of enzyme activity by iron ion and effect of chelating agent EDTA; type: biochemical, Escherichia coli
Procedure: The activity of the lysine decarboxylase was measured according to the method described in JP patent application laid-open Publication No. 2008-193899. 0.1 mL of a microbial cell suspension or a treated product thereof was added to 1 mL of a reaction solution containing 100 mM MES-NaOH buffer (pH 6.0), 10 g/L (55 mM) of L-lysine hydrochloride and 26.5 mg/L (0.1 mM) of PLP, and then the reaction mixture was incubated at 37° C. for 5 minutes. 0.1 mL of the reaction solution was collected and added to 1 mL of 1% (v/v) phosphoric acid to stop the reaction. Lysine and 1,5-PD were quantified with HPLC by a post column OPA method (S. R. Vale and M. B. Gloria, Journal Of AOAC International (1997) vol. 80, p. 1006-1012) or a method of quantifying remaining L-lysine using a biosensor BF-5 (Oji Scientific Instruments Co., Ltd.). One unit was defined as an activity that formed 1 μmol of 1,5-PD in one minute under this condition.
Cell free extracts were prepared from the strain expressing wild-type CadA and the strain overexpressing double mutant CadA, respectively in the same manner as in Examples 2 and 3. Using the resulting cell free extract, iron sulfate heptahydrate (Nacalai Tesque Inc.) at a final concentration of […] (2 mM) was added to the composition shown in Example 1, and an inhibitory effect was measured. […]

B1: pCadA220: wild-type lysine decarboxylase (CadA) derived from Escherichia coli W3110, expressed from plasmid pCadA220 (protein, UniProt P0A9H3 1-715, looked up)
Inducible lysine decarboxylase: MNVIAILNHMGVYFKEEPIRELHRALERLNFQIVYPNDRDDLLKLIENNARLCGVIFDWDKYNLELCEEISKMNENLPLYAFANTYSTLDVSLNDLRLQISFFEYALGAAEDIANKIKQTTDEYINTILPPLTKALFKYVREGKYTFCTPGHMGGTAFQKSPVGSLFYDFFGPNTMKSDISISVSELGSLLDHSGPHKEAEQYIARVFNADRSYMVTNGTSTANKIVGMYSAPAGSTILIDRNCHKSLTHLMMMSDVTPIYFRPTRNAYGILGGIPQSEFQHATIAKRVKETPNATWPVHAVITNSTYDGLLYNTDFIKKTLDVKSIHFDSAWVPYTNFSPIYEGKCGMSGGRVEGKVIYETQSTHKLLAAFSQASMIHVKGDVNEETFNEAYMMHTTTSPHYGIVASTETAAAMMKGNAGKRLINGSIERAIKFRKEIKRLRTESDGWFFDVWQPDHIDTTECWPLRSDSTWHGFKNIDNEHMYLDPIKVTLLTPGMEKDGTMSDFGIPASIVAKYLDEHGIVVEKTGPYNLLFLFSIGIDKTKALSLLRALTDFKRAFDLNLRVKNMLPSLYREDPEFYENMRIQELAQNIHKLIVHHNLPDLMYRAFEVLPTMVMTPYAAFQKELHGMTEEVYLDEMVGRINANMILPYPPGVPLVMPGEMITEESRPVLEFLQMLCEIGAHYPGFETDIHGAYRQADGRYTVKVLKEESKK
For B1, which “activity after heat treatment of lysate” value [1] is on record?
Its value is “inactivated”.

What about the “activity with 2 mM iron ion, of the activity when no iron ion was added” value ([2]; 2 mM iron ion, no EDTA) of the same molecule?
Its value is 46.8%.

What about the Enzyme activity ([2]; FeSO4 2 mM, EDTA 0.5 mM) of the same molecule?
The Enzyme activity was 827 units/ml.

And the Enzyme activity ([2]; FeSO4 2 mM, EDTA 1 mM)?
The Enzyme activity was 856 units/ml.

What about the Enzyme activity ([2]; FeSO4 2 mM, EDTA 2 mM) of the same molecule?
The Enzyme activity was 821 units/ml.

What about the Enzyme activity ([2]; FeSO4 2 mM, EDTA 4 mM) of the same molecule?
Its Enzyme activity is 840 units/ml.

And the Enzyme activity ([2]; FeSO4 2 mM, EDTA 5 mM)?
The Enzyme activity was 832 units/ml.

What about the Enzyme activity ([2]; FeSO4 2 mM, EDTA None) of the same molecule?
Its Enzyme activity is 398 units/ml.

What about the Enzyme activity ([2]; FeSO4 None, EDTA 2 mM) of the same molecule?
Its Enzyme activity is 840 units/ml.

What about the Enzyme activity ([2]; FeSO4 None, EDTA None) of the same molecule?
The Enzyme activity was 850 units/ml.
